We go through 1 molecule from article PMC11529722 (Science Advances, 2024).

This assay deals with valosin-containing protein (VCP), histidine-tagged (UniProt P55072 1-806). In words: BLI.
Sequence of valosin-containing protein (VCP), histidine-tagged (P55072 whole entry): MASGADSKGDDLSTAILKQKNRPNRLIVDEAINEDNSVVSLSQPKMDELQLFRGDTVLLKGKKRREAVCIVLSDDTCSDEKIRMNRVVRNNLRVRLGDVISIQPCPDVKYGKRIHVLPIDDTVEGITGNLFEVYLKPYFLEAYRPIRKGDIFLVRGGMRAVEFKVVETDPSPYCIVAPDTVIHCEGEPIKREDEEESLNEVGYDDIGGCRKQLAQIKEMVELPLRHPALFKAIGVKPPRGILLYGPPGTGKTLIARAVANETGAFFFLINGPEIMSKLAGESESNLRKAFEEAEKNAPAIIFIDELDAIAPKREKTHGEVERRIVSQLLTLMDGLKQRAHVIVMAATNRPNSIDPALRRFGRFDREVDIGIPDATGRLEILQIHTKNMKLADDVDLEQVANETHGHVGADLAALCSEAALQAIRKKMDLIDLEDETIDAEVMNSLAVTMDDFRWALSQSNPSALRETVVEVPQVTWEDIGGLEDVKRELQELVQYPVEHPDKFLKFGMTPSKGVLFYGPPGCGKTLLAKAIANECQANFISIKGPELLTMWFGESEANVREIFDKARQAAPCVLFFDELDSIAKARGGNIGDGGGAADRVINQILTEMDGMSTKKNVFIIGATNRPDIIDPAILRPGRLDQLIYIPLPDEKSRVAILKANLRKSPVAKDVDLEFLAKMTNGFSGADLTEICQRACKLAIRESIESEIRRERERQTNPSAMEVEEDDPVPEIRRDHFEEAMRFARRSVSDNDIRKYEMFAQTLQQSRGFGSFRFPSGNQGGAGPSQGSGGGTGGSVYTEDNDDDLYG

B1: P1, protein-like polymer (PLP) with HVLVMSATRR peptide side chains (other)
peptide: HVLVMSATRR
modifications: N terminus conjugated to N-(hexanoic acid)-exo-5-norbornene-2,3-dicarboximide, polymerised through the norbornene (ROMP) into the polymer backbone
Regarding B1, the Kd came to 92 nM and the koff worked out at 2.5e-05 s⁻¹.
